Tests used:
[1] = target: SctV (SsaV) of the Salmonella enterica serovar Typhimurium SPI-2 injectisome, full-length, C-terminal 6xHis (Salmonella enterica serovar Typhimurium (strain 12023)) (UniProt P74856); experiment: negative stain EM; purified SctV at about 0.05 mg/ml, 2% uranyl acetate, continuous carbon grids
[2] = target: SctV (SsaV) of the Salmonella enterica serovar Typhimurium SPI-2 injectisome, full-length, C-terminal 6xHis (Salmonella enterica serovar Typhimurium (strain 12023)) (UniProt P74856); experiment: SEC; Superose 6 10/300, 50 mM Tris-HCl pH 8.0, 50 mM NaCl, 0.03% DDM, 5 mM DTT; DDM-solubilised SctV
[3] = target: SctV (SsaV) of the Salmonella enterica serovar Typhimurium SPI-2 injectisome, full-length, C-terminal 6xHis (Salmonella enterica serovar Typhimurium (strain 12023)) (UniProt P74856); experiment: cryo-EM 2D classification; amphipol A8-35-stabilised SctV on UltrAufoil gold grids without support film; 2D class averages only
[4] = target: SctV (SsaV) of the Salmonella enterica serovar Typhimurium SPI-2 injectisome, full-length, C-terminal 6xHis (Salmonella enterica serovar Typhimurium (strain 12023)) (UniProt P74856); experiment: cryo-EM structure; DDM-solubilised full-length SctV at ~1 mg/ml on continuous carbon film; C9 symmetry imposed, refinement focused on the cytoplasmic domain; buffer pH 8.0

Measured: stoichiometry N

SctV (SsaV) of the Salmonella enterica serovar Typhimurium SPI-2 injectisome, full-length, C-terminal 6xHis (from UniProt P74856 1-681) (natural protein)
9: all assays above

From PMC8223533
